These results are taken from the supplement of paper PMC9112550, “Optimization of the antimicrobial peptide Bac7 by deep mutational scanning” (BMC Biology, 2022).

The test system of this data set is Escherichia coli TOP10. The data set is described as follows: shrunken log2 fold change of peptide-encoding DNA abundance (4.5 h post-induction vs induction); higher = less antimicrobial activity (less host growth inhibition). As to conditions: time post-induction: 4.5 h; library: site-saturation at positions 5, 18, 19, 20.
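Further: peptides expressed intracellularly from a pBAD plasmid library in pooled LB shake-flask culture, induced with 0.3% L-arabinose, DNA abundance read by NGS, three biological replicates, DESeq2 with apeglm shrinkage.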

For the sequence RRIRIRPPRLPRPRPRPPPRPRP, the “shrunken log2 fold change” value worked out at 0.929. RRIRIRPPRLPRPRPRPYGKPRP: the “shrunken log2 fold change” value was -0.108. In the case of RRIRFRPPRLPRPRPRPFFTPRP, the “shrunken log2 fold change” value is -0.227. Next, RRIRSRPPRLPRPRPRPIMKPRP: -0.292; RRIRMRPPRLPRPRPRPYYAPRP: -0.948. As for RRIRHRPPRLPRPRPRPMFKPRP, the “shrunken log2 fold change” value was -0.625.

Take RRIRRRPPRLPRPRPRPPGIPRP: the “shrunken log2 fold change” value stood at 0.612. Take RRIRDRPPRLPRPRPRPGMKPRP: the “shrunken log2 fold change” value was -0.00884. With RRIRLRPPRLPRPRPRPAAYPRP, the “shrunken log2 fold change” value is -0.15. To RRIRNRPPRLPRPRPRPAHLPRP belongs 0.256. As for RRIRHRPPRLPRPRPRPMKPPRP, the “shrunken log2 fold change” value is -0.0628.

For RRIRMRPPRLPRPRPRPCWPPRP, the “shrunken log2 fold change” value amounted to 0.218. To RRIRMRPPRLPRPRPRPTSQPRP belongs 0.393; to RRIRARPPRLPRPRPRPQRFPRP, 0.0296; to RRIRHRPPRLPRPRPRPKERPRP, -0.0122. Next, RRIRWRPPRLPRPRPRPINFPRP: -0.143; RRIRDRPPRLPRPRPRPPSWPRP: 0.102; RRIRGRPPRLPRPRPRPLIKPRP: 0.469. As for RRIRGRPPRLPRPRPRPSQYPRP, the “shrunken log2 fold change” value is -0.034. To RRIRNRPPRLPRPRPRPDIMPRP belongs -0.039. Next, RRIRVRPPRLPRPRPRPGKEPRP: -0.0126; RRIRSRPPRLPRPRPRPEQFPRP: 0.0895. As to RRIRRRPPRLPRPRPRPTPYPRP, the “shrunken log2 fold change” value was 0.545. For RRIRARPPRLPRPRPRPDNNPRP, the “shrunken log2 fold change” value was -0.154. As for RRIRQRPPRLPRPRPRPICPPRP, the “shrunken log2 fold change” value amounted to 0.128. Next, RRIRPRPPRLPRPRPRPWPPPRP: 0.504; RRIRKRPPRLPRPRPRPLIHPRP: 1.09; RRIRGRPPRLPRPRPRPPCMPRP: 0.293. Consider RRIRIRPPRLPRPRPRPEYDPRP, for which the “shrunken log2 fold change” value turned out to be 0.0262. To RRIRIRPPRLPRPRPRPFTQPRP belongs -0.71. For the sequence RRIRARPPRLPRPRPRPKRWPRP, the “shrunken log2 fold change” value turned out to be 0.586. Next, RRIRCRPPRLPRPRPRPQQLPRP: -0.054; RRIRRRPPRLPRPRPRPEDPPRP: 0.192. With RRIRGRPPRLPRPRPRPRSIPRP, the “shrunken log2 fold change” value amounted to 0.238.

On to RRIRIRPPRLPRPRPRPQSLPRP, for which the “shrunken log2 fold change” value was -0.321. RRIRGRPPRLPRPRPRPGNCPRP: the “shrunken log2 fold change” value came to 0.131.

As for RRIRRRPPRLPRPRPRPAQTPRP, the “shrunken log2 fold change” value was found to be 0.348. As to RRIRKRPPRLPRPRPRPDPNPRP, the “shrunken log2 fold change” value amounted to 0.0802. To RRIRCRPPRLPRPRPRPTVPPRP belongs 0.247. For the sequence RRIRTRPPRLPRPRPRPDHKPRP, the “shrunken log2 fold change” value was -0.117. Take RRIRGRPPRLPRPRPRPHLFPRP: the “shrunken log2 fold change” value was found to be 0.0842. Next, RRIRIRPPRLPRPRPRPSSVPRP: -1.03; RRIRQRPPRLPRPRPRPCADPRP: -0.116; RRIRCRPPRLPRPRPRPEMFPRP: 0.00455. Next, RRIRFRPPRLPRPRPRPQKDPRP: -0.376; RRIRDRPPRLPRPRPRPALIPRP: 0.145. To RRIRSRPPRLPRPRPRPAAMPRP belongs 0.852. As to RRIRQRPPRLPRPRPRPTAIPRP, the “shrunken log2 fold change” value is -0.248. To RRIRARPPRLPRPRPRPKLIPRP belongs 0.128.

For RRIRDRPPRLPRPRPRPTFGPRP, the “shrunken log2 fold change” value was found to be 0.228.
